Data on one substance can be found in article PMC3539332.

This experiment has as its target Arfrp1-His (UniProt Q13795). In words: liposome flotation; liposomes incubated with Arfrp1-His (1.5 μg) and 100 μM GDP or GTPγS, with or without 1 μg MBP-Vangl2 cytosolic domain, in HKM buffer at room temperature for 45 min, then 2 μg purified AP-1 for 1 hr; sucrose flotation; γ1-adaptin in the top fraction by immunoblot, normalised to lipid.
UniProt Q13795, sequence (Q13795 whole entry, the tested form may be a part): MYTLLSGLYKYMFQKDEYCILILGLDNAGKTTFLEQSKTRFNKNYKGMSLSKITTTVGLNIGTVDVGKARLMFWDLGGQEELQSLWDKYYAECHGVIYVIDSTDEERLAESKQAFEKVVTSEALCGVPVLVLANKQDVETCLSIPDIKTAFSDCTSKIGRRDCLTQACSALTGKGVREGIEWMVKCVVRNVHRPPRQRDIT

Regarding “purified AP-1 complex (from UniProt Q2KJ81 1-423)”, the fold change of membrane recruitment of AP-1 with both Vangl2 cytosolic domain and Arfrp1-GTPγS amounted to 3 fold.
